Source: patent publication US20120058906A1 (published 2012)
Positions count from the first letter of the chain named.

How the values were obtained:
[1] = molecular target: T1, rHuman Notch-1/Fc Chimera, CF (R&D Systems Cat#3647-TK) (human, UniProt P46531 19-526); experiment: MSD ECL titration, Fab 148.9 nM, blank 218
T1 construct: Bought Fc chimera; Fc part of the bought chimera not given

[2] = molecular target: T2, rHuman CD44/Fc Chimera, CF (R&D Systems Cat#3660-CD) (human, UniProt P16070 21-220); experiment: MSD ECL titration, Fab 148.9 nM, blank 218
T2 construct: Bought Fc chimera; Fc part of the bought chimera not given

[3] = molecular target: T3, rHuman Erythropoietin R/Fc Chimera, CF (R&D Systems Cat#963-ER) (human, UniProt P19235 25-250); experiment: MSD ECL titration, Fab 148.9 nM, blank 218
T3 construct: Bought Fc chimera; also called EPO R/Fc; EPOR; Fc part of the bought chimera not given
T3 sequence: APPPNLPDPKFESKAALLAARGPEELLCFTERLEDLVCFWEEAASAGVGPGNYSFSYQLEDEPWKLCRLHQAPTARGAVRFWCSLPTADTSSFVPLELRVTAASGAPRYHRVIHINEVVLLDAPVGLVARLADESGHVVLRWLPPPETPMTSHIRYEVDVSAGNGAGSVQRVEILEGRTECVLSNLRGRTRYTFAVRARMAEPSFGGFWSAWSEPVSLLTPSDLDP

[4] = molecular target: T4, rHuman ErbB2/Fc Chimera, CF (R&D Systems Cat#1129-ER) (human, UniProt P04626 23-652); experiment: MSD ECL titration, Fab 148.9 nM, blank 218
T4 construct: Bought Fc chimera; also called HER2/neu; Fc part of the bought chimera not given

[5] = molecular target: T5, rHuman EGF R/Fc Chimera, CF (R&D Systems Cat#344-ER) (human, UniProt P00533 25-645); experiment: MSD ECL titration, Fab 148.9 nM, blank 218
T5 construct: Bought Fc chimera; Fc part of the bought chimera not given

[6] = molecular target: T6, rHuman HGF R/c-MET/Fc Chimera, CF (R&D Systems Cat#358-MT/CF) (human, UniProt P08581 25-932); experiment: MSD ECL titration, Fab 148.9 nM, blank 218
T6 construct: Bought Fc chimera; also called HGF R/Fc; Fc part of the bought chimera not given

[7] = molecular target: T7, rHuman IGF-1 sR (insulin-like growth factor-1 soluble receptor), CF (R&D Systems Cat#391-GR) (human, UniProt P08069 31-932); experiment: ECL (MSD multi-spot), antigen on plate, Fab 0.4 nM
T7 construct: Bought soluble receptor; also called IGF-R1

[8] = molecular target: T8, rHuman P-Cadherin/Fc Chimera, CF (R&D Systems Cat#861-PC) (human, UniProt P22223 108-654); experiment: ECL (MSD multi-spot), antigen on plate, Fab 0.4 nM
T8 construct: Bought Fc chimera; also called CDH3; not shown: Fc of the bought chimera

[9] = molecular target: T9, rHuman Erythropoietin R/Fc Chimera, CF (R&D Systems Cat#963-ER) (human, UniProt P19235 25-250); experiment: ECL (MSD multi-spot), antigen on plate, Fab 0.4 nM
T9 construct: Bought Fc chimera; also called EPO R/Fc; Epo R; not shown: Fc of the bought chimera
T9 sequence: T3 sequence

[10] = molecular target: T10, Recombinant Human DLL4 (R&D Systems Cat#1506-D4/CF) (human, UniProt Q9NR61 27-524); experiment: ECL (MSD multi-spot), antigen on plate, Fab 0.4 nM
T10 construct: Bought recombinant protein; also called delta-like protein 4

[11] = molecular target: T11, rHuman ErbB2/Fc Chimera, CF (R&D Systems Cat#1129-ER) (human, UniProt P04626 23-652); experiment: ECL (MSD multi-spot), antigen on plate, Fab 0.4 nM
T11 construct: Bought Fc chimera; also called HER2/neu; not shown: Fc of the bought chimera

[12] = molecular target: T12, rHuman EGF R/Fc Chimera, CF (R&D Systems Cat#344-ER) (human, UniProt P00533 25-645); experiment: ECL (MSD multi-spot), antigen on plate, Fab 0.4 nM
T12 construct: Bought Fc chimera; also called ErbB-1; not shown: Fc of the bought chimera

[13] = molecular target: T13, rHuman HGF R/c-MET/Fc Chimera, CF (R&D Systems Cat#358-MT/CF) (human, UniProt P08581 25-932); experiment: ECL (MSD multi-spot), antigen on plate, Fab 0.4 nM
T13 construct: Bought Fc chimera; also called HGF R/Fc; not shown: Fc of the bought chimera

[14] = molecular target: T14, rHuman Notch-1/Fc Chimera, CF (R&D Systems Cat#3647-TK) (human, UniProt P46531 19-526); experiment: ECL (MSD multi-spot), antigen on plate, Fab 0.4 nM
T14 construct: Bought Fc chimera; not shown: Fc of the bought chimera

[15] = molecular target: T15, rHuman CD44/Fc Chimera, CF (R&D Systems Cat#3660-CD) (human, UniProt P16070 21-220); experiment: ECL (MSD multi-spot), antigen on plate, Fab 0.4 nM
T15 construct: Bought Fc chimera; not shown: Fc of the bought chimera

[16] = molecular target: T16, rHuman ErbB2/Fc Chimera, CF (R&D Systems Cat#1129-ER) (human, UniProt P04626 23-652); experiment: ECL (MSD multi-spot), antigen spotted on plate; Fab 11 nM; blank spot 212
T16 construct: Bought reagent; also called HER2/neu; human epidermal growth factor 2 receptor; Fc part of the bought chimera not given

[17] = molecular target: T17, rHuman EGF R/Fc Chimera, CF (R&D Systems Cat#344-ER) (human, UniProt P00533 25-645); experiment: as above
T17 construct: Bought reagent; also called epidermal growth factor receptor; Fc part of the bought chimera not given

[18] = molecular target: T18, rHuman HGF R/c-MET/Fc Chimera, CF (R&D Systems Cat#358-MT/CF) (human, UniProt P08581 25-932); experiment: as above
T18 construct: Bought reagent; also called HGF R/Fc; hepatocyte growth factor receptor; Fc part of the bought chimera not given

[19] = molecular target: T19, rHuman IGF-1 sR (IGF-1 sR), CF (R&D Systems Cat#391-GR) (human, UniProt P08069 31-932); experiment: as above
T19 construct: Bought soluble receptor; also called insulin-like growth factor-1 soluble receptor; IGF-R1
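Also: blank spot per well as comparator with Hit at signal to blank ratio of 4 or more.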

B1: Fab VH1-46_IGHD6-6*01_IGHJ1*01 & L6_IGKJ1*01 (Fab, V domains shown)
VH: QVQLVQSGAEVKKPGASVKVSCKASGYTFTSYYMHWVRQAPGQGLEWMGIINPSGGSTSYAQKFQGRVTMTRDTSTSTVYMELSSLRSEDTAVYYCAREEYSSSSAEYFQHWGQGTLVTVSS
VL: not shown
notes: Expressed in E. coli as Fab: heavy chain with CH1 plus Flag and His tags from Plasmid A, kappa light chain constant region from Plasmid C; also called Fab No. 1
B1 was tested, and the ECL signal [1] was 375, the ECL signal [2] was 348 and the ECL signal [3] was 373. It also gave an ECL signal [4] of 247, an ECL signal [5] of 290 and an ECL signal [6] of 205.

B2: Fab VH1-46_IGHD6-6*01_IGHJ1*01_S102A_S103P_S104F & L6_IGKJ1*01_S28P (Fab, V domains shown)
VH: B1 VH with S102A, S103P, S104F
VL: EIVLTQSPATLSLSPGERATLSCRASQPVSSYLAWYQQKPGQAPRLLIYDASNRATGIPARFSGSGSGTDFTLTISSLEPEDFAVYYCQQRSNWPPWTFGQGTKVEIKR
notes: Fab
B2 showed an ECL signal [7] of 172 ECL signal, an ECL signal [8] of 191 ECL signal and an ECL signal [9] of 147 ECL signal. For the same binder, the ECL signal [10] was 1140 ECL signal, the ECL signal [11] was 275 ECL signal and the ECL signal [12] was 246 ECL signal. It also gave an ECL signal [13] of 199 ECL signal, an ECL signal [14] of 248 ECL signal and an ECL signal [15] of 257 ECL signal.

B3: Fab VH1-46_IGHD3-10*01_IGHJ4*01 & B3_IGKJ1*01 (Fab, V domains shown)
VH: QVQLVQSGAEVKKPGASVKVSCKASGYTFTSYYMHWVRQAPGQGLEWMGIINPSGGSTSYAQKFQGRVTMTRDTSTSTVYMELSSLRSEDTAVYYCAREYYYGSGSYYNDYFDYWGQGTLVTVSS
VL: not shown
notes: also called IGHV1-46*01
In the case of B3, the ECL signal [16] is reported as 216, the ECL signal [17] is reported as 201 and the ECL signal [18] is reported as 268. The ECL signal [19] was 289.
